Reference: publication PMC4005679, “In vitro assembly and activity of an archaeal CRISPR-Cas type I-A Cascade interference complex” (Nucleic Acids Research, 2014)

Key:
[1] = target: T1, Csa5;Cas7;Cas5a;Cas3';Cas3'';Cas8a2 (Thermoproteus tenax Kra1;Thermoproteus …, UniProt G4RJZ0;G4RJZ1;G4RJZ2;G4RJZ3;G4RJZ4;G4RJZ5 1-130;1-329;1-226;1-566;1-226;1-361, |||||); test: EMSA; yeast RNA competitor; Ca2+ during reconstitution; 0.125-2 uM Cascade; 100 mM HEPES/KOH pH 7, 100 mM NaCl, 10 mM beta-mercaptoethanol, 50 ng yeast RNA, 30 min at 70 C (Cascade; 6% native TBE-PAGE); Cas7 alone without yeast RNA at 80 C, agarose gel; 2-4 nM labeled crRNA; details: protein: recombinant;recombinant;recombinant;recombinant;recombinant;recombinant; tags: untagged;His-SUMO tag cleaved off;;;;; label: 5'-32P; single strand
[2] = target: T1, Csa5;Cas7;Cas5a;Cas3';Cas3'';Cas8a2; test: EMSA; yeast RNA competitor; Ca2+ during reconstitution; 0.125-5 uM Cascade; affinity similar to crRNA 5.13; 100 mM HEPES/KOH pH 7, 100 mM NaCl, 10 mM beta-mercaptoethanol, 50 ng yeast RNA, 30 min at 70 C (Cascade; 6% native TBE-PAGE); Cas7 alone without yeast RNA at 80 C, agarose gel; 2-4 nM labeled crRNA; details: protein: recombinant;recombinant;recombinant;recombinant;recombinant;recombinant; tags: untagged;His-SUMO tag cleaved off;;;;; label: 5'-32P (EMSA); unlabeled in SEC; single strand

B1: crRNA 5.13 (ssRNA)
RNA: AUUGAAAGAUCGCUUGUCCAACCGGGCUCCUCUAUAUGUCGUCAUUAGCUUAGA
modifications: 5'-OH from hammerhead cleavage before labeling
[1]
  binding result: binds

## AUUGAAAGCGUUGAUGCGGCCGCGACUGGCUGACUCAGCUAUUACGUUGA (ssRNA, 5'-OH from hammerhead cleavage before labeling) [crRNA 5.2]
[2]
  binding result: binds
